Where two headings read alike, the source gives them in different places. Non-standard residues stand in square brackets, D forms with d. pGlu = O=C1CC[C@@H](C(=O)O)N1
T1: NCK1 SH3-2 domain (human)
T1 chain: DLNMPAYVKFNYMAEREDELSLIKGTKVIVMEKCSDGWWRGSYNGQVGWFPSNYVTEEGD


Legend:
Experiment in all cases: ITC
NCK1 SH3-2 domain [1] = target: T1, NCK1 SH3-2 domain
NCK1 SH3-2 domain [2] = target: T1, NCK1 SH3-2 domain
NCK1 SH3-2 domain [3] = target: T1, NCK1 SH3-2 domain
NCK1 SH3-2 domain [4] = target: T1, NCK1 SH3-2 domain
NCK1 SH3-2 domain [5] = target: T1, NCK1 SH3-2 domain
NCK1 SH3-2 domain [6] = target: T1, NCK1 SH3-2 domain
NCK1 SH3-2 domain [7] = target: T1, NCK1 SH3-2 domain

| Binder | Kd (NCK1 SH3-2 domain [3]) [µM] | binding result (NCK1 SH3-2 domain [6]) | other results |
| --- | --- | --- | --- |
| Ac-APRPPKR-NH2 [MH047] | < 300 |  | Kd (NCK1 SH3-2 domain [4]): < 300 µM; Kd (NCK1 SH3-2 domain [5]): < 300 µM |
| Ac-PAVPPRP-NH2 [MH082] |  | no binding |  |
| Ac-SPAKGEPSLPEK-NH2 [MH133] |  | no binding |  |
| H-PAVPPRP-NH2 [MH081] |  | no binding |  |
| [pGlu]RPPKR-NH2 [MH044] |  |  | binding result (NCK1 SH3-2 domain [7]): no binding |

The next lines start with results.

| Kd (NCK1 SH3-2 domain [3]) [µM] | binding result (NCK1 SH3-2 domain [6]) | Binder | other results |
| --- | --- | --- | --- |
| < 300 |  | Ac-PRPPKR-NH2 [MD20] | Kd (NCK1 SH3-2 domain [1]): < 193 µM; Kd (NCK1 SH3-2 domain [2]): < 300 µM |
| < 300 |  | Ac-PPRPPKR-NH2 [MD18] | Kd (NCK1 SH3-2 domain [1]): < 193 µM |

— patent publication US20260365696A1, “INHIBITORS OF PTP1B / NCK1 INTERACTION AND METHODS OF MAKING AND USING SAME” (Radella Pharmaceuticals LLC, priority 2023, published 2026)
